Experimental findings from patent publication US20190248902A1 (published 2019) are described below.

Where a chain is given by its changes, count along the chain named.

First the molecules themselves.
B1: 7E11 (antibody, V domains shown)
VH: QVQLVESGGGVVQPGRSLRLSCAASGFTFSSFGMHWVRQAPGKGLEWVAIIWHDGSNKYYADSVKGRFTISRDNSNNTLYLQMSSLRAEDTAVYYCARDLSMGGMDVWGQGTTVTVSS
VL: DIQMTQSPSSLSASVGDRVTIACRASQNIISYLNWYQQKPGKAPKFLIYTASSLQSGVPSRFSGSGSGTDFTLTISSLQPEDFAIYYCQQTYSTPLTFGGGTKVEIK
notes: mAb
B2: 56E5 (antibody, V domains shown)
VH: QVQLVQSGAEVKKPGASVKVSCQASGYTFTGYHMHWVRQAPGQGLEWMGWINPNNNATNYAQKFQGRVTMTRDTSISTAYMELRRLRSDDTAVYHCARDGTSSFDYWGQGTLVTVSS
VL: DIQMTQSPSSVSASVGDRVTITCRASQGIRKWLAWYQQKPGKAPKLLIYAASSLQSGVPSRFSGSGSGTDFTLTISSLQPEDFATYYCQQANSFPFTFGPGTKVDIK
notes: mAb
B3: 4A2 (antibody, V domains shown)
VH: QVQLVQSGTEVKKPGASVKVSCKASGYTFTNYDINWVRQATGQGLEWMGWMHPNSGNTGYAQKFQGRVTLTRNTSISTAYMELSSLRSEDTAVYYCASSSGWYYFDYWGQGTLVTVSS
VL: DIVMTQSPDSLAVSLGERATINCKSSQSILHSSNNNNYLAWFQQKPGQPPKLLLYWASTRESGVPDRFSGSGSGTDFTLTISSLQPEDVAVYYCQQYYNTPVTFGPGTKVGIK
notes: mAb
B4: 26C4 (antibody, V domains shown)
VH: B3 VH with T9A, T41S, H52N, K63R, L70M, S77N
VL: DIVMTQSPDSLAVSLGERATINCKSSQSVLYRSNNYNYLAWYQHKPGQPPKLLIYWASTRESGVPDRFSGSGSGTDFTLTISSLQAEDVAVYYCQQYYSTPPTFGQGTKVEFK
notes: mAb
B5: 5E5 (antibody, V domains shown)
VH: QVQLVESGGGVVQPGRSLRLSCAASGFTFSNYVMHWVRQAPGKGLEWVAVIWYDGSNKYYADSVKGRFTISRDNSKNTLYLQMNSLRAEDTAVYYCTREVYSSGWYDYGMDVWGQGTTVTVSS
VL: DIQMTQSPSSLSASVGDRVTITCRASQGIRNDLGWYQQKPGKAPKRLIYAASSLQSGVPSRFSGSGSGTEFTLTISSLQPEDFATYYCLQHYSYPRTFGQGTKVEVK
notes: mAb
B6: 7G4 (antibody, V domains shown)
VH: B5 VH with S30N, N84T, T97A, V100K, G104N
VL: B5 VL with K39R, F83S, Q90H, H91Q, V106I
notes: mAb
B7: 194A4 (antibody, V domains shown)
VH: QVQLVQSGTEVKKPGASLKVSCKASGYTFTVYYLNWVRQAPGQGLEWMGWINPNSGGTNYAQKFQGRVTMTRDTSISTAYMELSRLRSDDTAVYYCARGYDILTGWGQGTLVTVSS
VL: EIVLTQSPGTLSLSPGERATLSCRASRGVSNIYLAWYQQKPGQAPRLLIYGASNRATGIPDRFSGSGSGTDFTLTISRLEPEDFAVYYCQHNDYSMFTFGPGTKVDIK
notes: Tested as hybridoma supernatant at normalized concentration
B8: 4H6 (antibody, V domains shown)
VH: QVQLVQSGAEVKKPGASVKVSCKASGYTFTDYYLHWVRQAPGQGLEWMGWIHPNSGGTNYAQKFQGRVTMTRDTSISTAYMGLSSLRSDDTAVYYCARDGTSSFDYWGQGTLVTVSS
VL: B2 VL with R30S, K31R, A50G, T85I
notes: as for B7
B9: 72G9 (antibody, V domains shown)
VH: EVQLVESGGGLVKPGGSLRLSCAASGFTFSSYSMNWVRQAPGKGLEWVSSISGSSSYIYYADSVKGRFTISRDNAKNSLYLQMNSLRAEDTAVYFCARGGSRGFDPWGQGTLVTVSS
VL: B2 VL with V11L, G28S, R30T, K31S, W32Y, A34N, A50T, A91S, N92H
notes: as for B7
B10: 56E5 (antibody, V domains shown)
VH: B2 VH
VL: B2 VL
notes: as for B7
B11: 4B1 (antibody, V domains shown)
VH: QVQLQESGPGLVKPSETLSLTCSVSGDSISSYSWSWIRQPAGKGLEWIGRIYTSGSTNYIPSLKSRITMSVDTSKKQFSLKLSSVTAADTAVYYCARDLKSSGCLFFDYWGQGTLVTVSS
VL: DIQMTQSPSSLSASVGDRVTITCRASHTIRTYLNWYQQKPGKAPKLLIYAASSLQSGVPSRINGSGSGTDFTLTITNLQPEDFATYYCQQSYNISFTFGPGTKVDIK
notes: as for B7
B12: 29H8 (antibody, V domains shown)
VH: B3 VH with T9A, K12Q, H52N, K63R, L70M, T78A
VL: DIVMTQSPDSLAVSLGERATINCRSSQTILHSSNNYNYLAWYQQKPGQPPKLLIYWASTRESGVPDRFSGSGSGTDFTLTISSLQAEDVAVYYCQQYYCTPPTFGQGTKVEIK
notes: as for B7
B13: 4A2 (antibody, V domains shown)
VH: B3 VH
VL: B3 VL
notes: as for B7
B14: 184E7 (antibody, V domains shown)
VH: QVQLVQSGAEVKTPGASVKVSCRASGYTFTSYNMHWVRQVPGQGLEWMGWINPNNGGSNYTQKFQGRVTMTRDTSISTAYMELSRLRSDDTAVYYCARKFGDWGQGTLVTVSS
VL: DIQMTQSPSSRSASIGERVTITCRASQGISNYLAWIQQKPGTAPKSLIYAASSLQSGVSSRFSGSGFGTDFTITISSVQREDFATYYCQQYNGYPFTFGHGTKVDIK
notes: as for B7

For the first test, the target named is T1, human ASGR-1 (wild type) (human, UniProt P07306 1-291).
T1 construct: also called wt ASGR1; huASGR-1
T1 sequence: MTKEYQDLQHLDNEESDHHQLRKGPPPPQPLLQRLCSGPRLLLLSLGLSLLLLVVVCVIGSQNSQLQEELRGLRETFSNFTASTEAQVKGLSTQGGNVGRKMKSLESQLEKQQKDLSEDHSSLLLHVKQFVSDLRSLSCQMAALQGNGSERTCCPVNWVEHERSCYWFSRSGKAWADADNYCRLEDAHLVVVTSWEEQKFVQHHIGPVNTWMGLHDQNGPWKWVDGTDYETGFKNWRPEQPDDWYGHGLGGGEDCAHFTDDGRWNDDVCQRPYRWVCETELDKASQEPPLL
The test is described as follows: flow cytometry, CHO-S:huASGR-1 cells, 11-point titration. How it is done:
CHO—S stable high-expressing cell line were developed for both human ASGR-1 as well as mouse ASGR-1. A typical 384 well plate multiplex flow cytometery-based cell binding method is described as followed: Parental CHO—S cells and CHO—S:huASGR-1 cells were respectively labeled using a CellTrace CFSE Cell Proliferation Kit (ThermoFisher Catalog #C34554) and CellTrace Violet Cell Proliferation Kit (ThermoFisher Catalog#C34557) CHO—S:muASGR-1 were not labeled. 20 ul of cells at 4C were added to duplicate wells of the 384 well plate. The cells were equally mixed from all three cell lines (30K cells/well). Then 20 ul of the ASGR-1 antibodies (either purified from hybridoma supernatants or made recombinantly) were added in an 11-point dose response using a 1:2 fold serial dilution starting at 100 nM. The cells and antibodies were incubated for 30 min at 4C and then spun down and washed twice with FACS buffer containing 1 mM CaCl2. 30 ul of anti-hulgG-APC secondary antibodies were then added at a 1:1000 dilution) for 30 min at 4C and then washed once with the same buffer. 60 ul of PI (1:1000) was added and then the cells were read by a core flow cytometry facility. The cells were gated first for live cells, then for single cells and finally for the cell dyes to separate the mixed cells into the three different cell populations. Histograms of signal vs count representing the binding profile of each antibody at each antibody concentration were automatically analyzed for the median of the binding signal and then a binding graph was made with log 10 antibody concentration in nM on the X axis with […] from the duplicate wells on the Y-axis. The binding curves were fit with a standard four parameter sigmoidal binding curve and EC50's reported for all graphs with full curves.
What is called EC50 is the concentration at which the effect is half-maximal. A lower EC50 goes with greater potency. The molecule B1 showed an EC50 of 1.4 nM. On the same count and under the same terms, under B2 stands 1.1 nM; under B3, 0.82 nM. Same read-out and setting: the result for B4 reads 11 nM; that for B5, 3.8 nM; that for B6, 0.69 nM.

A further test addresses T2, human ASGR-1 mutant construct H203 (human, UniProt P07306 1-291).
T2 construct: Arg/Glu scanning: non-arginine residues were changed to arginine; Transiently expressed on CHO-S cells
T2 sequence: T1 sequence with H203R
The test is described as follows: FACS ratio: 65C12 geomean / this mAb geomean. In a few lines: (§1)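 Value is the geomean of reference antibody 65C12 divided by that of the test mAb, correcting for construct expression. Binding was measured by flow cytometry on transiently transfected CHO-S cells after 1 h at 4 °C with antibody at 5 ug/ml. Detection used an anti-Fc Alexa 647 secondary, with 7-AAD to exclude dead cells.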
Regarding B1, the “Expression Normalization to mAb 65C12” value was determined as 1.75.

B2: the “Expression Normalization to mAb 65C12” value was 1.27.

Regarding B3, the “Expression Normalization to mAb 65C12” value came out at 1.36. Still for that read-out and setting: under B4 stands 1.91; under B5, 2.04; under B6, 1.39.

For another test, the target named is T1, human ASGR-1 (wild type). The test is described as follows: FACS ratio: 65C12 geomean / this mAb geomean. Put shortly:
as §1
Consider B1, for which the “Expression Normalization to mAb 65C12” value is 1.23. As for B2, the “Expression Normalization to mAb 65C12” value came to 1.32. Same read-out and setting: the result for B3 reads 1.36; that for B4, 1.22.

Turning to B5, the “Expression Normalization to mAb 65C12” value was 1.38.

For B6, the “Expression Normalization to mAb 65C12” value was found to be 1.16.

For another test, the target named is T3, Soluble ASGR-1 (human, UniProt P07306 62-291, biotinylated).
T3 construct: Soluble recombinant protein; also called recombinant, soluble ASGR-1 biotinylated protein
T3 sequence: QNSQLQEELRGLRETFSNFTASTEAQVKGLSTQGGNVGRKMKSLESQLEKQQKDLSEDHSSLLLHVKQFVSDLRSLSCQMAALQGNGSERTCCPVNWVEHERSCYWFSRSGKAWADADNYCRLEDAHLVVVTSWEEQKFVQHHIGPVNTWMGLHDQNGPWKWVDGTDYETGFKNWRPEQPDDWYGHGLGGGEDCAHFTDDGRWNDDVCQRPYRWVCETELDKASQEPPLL
The test is described as follows: limited antigen binding assay; biotinylated soluble ASGR-1 coated at 2.5 ng/mL on LumAvidin beads, FACS. How it is done:
To assess antibody and antigen interaction strength (relative binding affinity), ASGR-1 specific, ligand competing antibody hybridoma supernatants were tested in a limiting antigen binding assay. Titrated amounts of recombinant, soluble ASGR-1 biotinylated protein was incubated with streptavidin-coated LumAvidin Beads® for 45 minutes in the dark at room temperature and washed twice. Beads were resuspeneded in FACS buffer containing Stabilguard® and 0.05% Sodium Azide. Antigen-bound beads were then incubated with normalized hybridoma supernatant sample or controls for 18 hours in the dark at room temperature, washed twice, incubated with Alexa Fluor® 488 IgG fragment-specific detection antibody for 15 minutes in the dark at room temperature, washed once and finally resuspended in FACS buffer. Samples were analyzed using an Intellicyt iQue™ Screener Platform. FACS buffer supplemented with 1 mM Calcium Chloride was used in all steps. […] In this assay method, the antibody binding signal correlates with antibody affinity. Antibody binding data for a representative antigen coating concentration that fell in the linear range of the instrument signal detection is shown in Table 7.2. The degree of antibody binding to the target (ASGR-1) correlates with the measured fluorescent intensity and thus allows a relative comparison of affinities across the panel.
Regarding B7, the “FACS Geomean” value was 38900 FACS Geomean. The same measure, in the same setting: under B8 stands 2990 FACS Geomean. As for B9, the “FACS Geomean” value came to 34000 FACS Geomean. As for B10, the “FACS Geomean” value came out at 22600 FACS Geomean. Same read-out and setting: the result for B11 reads 10100 FACS Geomean. As for B12, the “FACS Geomean” value stood at 12200 FACS Geomean. Same read-out and setting: the result for B13 reads 16600 FACS Geomean; that for B14, 40200 FACS Geomean.
